For this assay, the target named is HER-3 (human, on cells) (human) (UniProt P21860). Briefly: indirect FACS Scatchard analysis on cells.

For the substance U1-46 (antibody), the Kd stood at 13.8 nM.

Broadly, the Kd is the free concentration of one partner at which half of the binding sites on the other are occupied at equilibrium, for simple one-to-one binding. Read a low Kd as a tighter complex.

Source of the values: US20110229406A1.
